# Measurements: US20260083641
# Test system: collagen
substance,measurement,value
"N-terminally truncated recombinant collagenase G (ColG) from Clostridium histolyticum, residues Tyr119-Lys1118, with N-terminal His-tag and TEV cleavage site","fluorescence intensity, in vitro collagenase activity assay",where all the reaction components were included (two most right bars) significantly higher fluorescence was detected
commercial collagenase (C.COL) (Sigma-Aldrich),collagenase activity relative to COLG,"the activity of C.COL was significantly higher, increase of about 30%-40%, than that of COLG"
same,"fluorescence intensity, in vitro collagenase activity assay",where all the reaction components were included (two most right bars) significantly higher fluorescence was detected
